Laboratory results: publication PMC4702122, “Embelin binds to human neuroserpin and impairs its polymerisation” (Scientific Reports, 2016)
Values joined by “and” are separate entries in the source; they are usually repeats but may differ in a detail not shown here. Identical values can stand only once.

Tests used:
[1] = target: T1, 2ctPA (active form of recombinant tPA) (Homo sapiens, UniProt P00750); experiment: tPA hydrolytic activity assay; format: biochemical; details: direct inhibition stated, data not shown; conditions not given
T1 construct: gene PLAT

[2] = target: Neuroserpin (SERPINI1), wild type, uncleaved (human) (UniProt Q99574); experiment: SEC; Nat (4 mg/ml) with 1.5 mM (saturated) EMB overnight at 4, 20, 37, 45, 55 °C; Superdex200 10/300 GL, 10 mM Tris HCl, 50 mM KCl, pH 8.0; fractions also by SDS-PAGE
[3] = target: Neuroserpin (SERPINI1), wild type, uncleaved (human) (UniProt Q99574); experiment: SEC-MALS; Nat incubated with EMB; peaks eluted at 13.7 and 12.5 ml; SEC-HPLC, 200 μL at 4 mg/mL
[4] = target: Neuroserpin (SERPINI1), wild type, uncleaved (human) (UniProt Q99574); experiment: native MS; nano-ESI-MS of the SEC peak at 12.5 ml of Nat incubated overnight at 20 °C with EMB; 100 mM ammonium acetate pH 8, 10-20 μM protein, declustering potential 300 V

T1 sequence (P00750 36-562): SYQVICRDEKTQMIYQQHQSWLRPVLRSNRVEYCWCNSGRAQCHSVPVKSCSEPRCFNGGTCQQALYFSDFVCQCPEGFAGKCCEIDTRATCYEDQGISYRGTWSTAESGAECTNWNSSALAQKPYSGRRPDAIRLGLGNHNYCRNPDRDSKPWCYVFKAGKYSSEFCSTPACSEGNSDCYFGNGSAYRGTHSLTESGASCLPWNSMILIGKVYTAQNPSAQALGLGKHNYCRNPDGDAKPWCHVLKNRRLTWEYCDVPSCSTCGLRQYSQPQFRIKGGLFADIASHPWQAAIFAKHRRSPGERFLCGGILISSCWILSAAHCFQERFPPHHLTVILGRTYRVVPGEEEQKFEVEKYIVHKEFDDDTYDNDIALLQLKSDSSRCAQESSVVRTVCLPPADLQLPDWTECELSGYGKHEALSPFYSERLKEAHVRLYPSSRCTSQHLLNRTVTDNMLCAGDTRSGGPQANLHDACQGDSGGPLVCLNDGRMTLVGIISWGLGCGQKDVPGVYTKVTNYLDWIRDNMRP

| stoichiometry N [2] | stoichiometry N [3] | stoichiometry N [4] | Compound | tPA hydrolytic activity assay [1] |
| --- | --- | --- | --- | --- |
| – | – | – | CCCCCCCCCCCC1=C(O)C(=O)C=C(O)C1=O [EMB, embelin] | Due to direct inhibitory effect of EMB on tPA |
| 2 to 8 | 2 | 3 and 4 and 2 | Neuroserpin (SERPINI1), wild type, uncleaved (from UniProt Q99574 17-410) (natural protein) | – |
